Test results from patent US20220064224A1 (NOVOBIND LIVESTOCK THERAPEUTICS, published 2022).
Positions count from the first letter of the chain named.

B1: NBX0411 (VHH)
VHH: QVQLQESGGGLVQPGGSLRLSCAVSGLAFGRVAMAWYRQAPGKERELVARISSGGYTNYADSAKGRFTISRDNVKNLVYLQMNSLKFDDTAVYYCNSGWSGDYWGKGTLVTVSS
B2: NBX0421 (VHH)
VHH: B1 VHH with E6Q, V32Y, S53N, L77T, Q81E, D102N
B3: NBX0415 (VHH)
VHH: QVQLQESGGGLVQAGGSLRLSCAASGRTFSSYAMGWFRQAPGKEREYVAAINRFGGTYYADFVKGRFTISRDNAKNTVYLQMNSLKPEDTAVYYCAASRILGLTTAREDYNYWGQGTQVTVSS
B4: NBX0412 (VHH)
VHH: B3 VHH with A24V, G55S, T104S
B5: NBX0429 (VHH)
VHH: B3 VHH with E6Q, R99G, T104S
B6: NBX0431 (VHH)
VHH: B3 VHH with E6Q, A50G, T104S
B7: NBX0414 (VHH)
VHH: QVQLQESGGGLVQAGGSLRLSCRASGRTFSSSSMGWFRQAPGKERDFVAAISWDGASTRYADSVKGRFTISRDNAKNTVYLQMNSLKPEDTAVYYCAASTMDFIVLLTKWYPYWGQGTQVTVSS
B8: NBX0416 (VHH)
VHH: B7 VHH with R23A, S52N, D54S, A56D, N77S
B9: NBX0417 (VHH)
VHH: QVQLQESGGGLVQPGGSLRLSCAASGSIFSINVMAWYRQAPGKEREYVASITRGGGDYYANSVKGRFTISRDNAKNAVYLQMNSLKPEDTAVYECNAQISQTISGDYRNYWGQGTQVTVSS
B10: NBX0426 (VHH)
VHH: QVQLQESGGGLVQPGGSLRLSCAASGIGDRPYVMAWHRQAPGKQRELVATITRDGYTNYADTVKGRFVVSRDNAQNTVYLQMNYLKPADTAVYYCRAYNAYLNLGYWGQGTQVTVST
B11: NBX0428 (VHH)
VHH: QVQLQESGGGLVQAGGSLRLSCAASGSTSSINHIAWYRQAPGKQREWVATITSGGGSTYYTNSVKGRFTISRDNAKNTVYLQMNNLKPEDTAVYYCKANQAAGNKDYWGQGTQVTVSS
B12: NBX0430 (VHH)
VHH: QVQLQQSGGGLVQAGGSLRLSCAASGLTFGSPAMAWYRQAPGKEREWVATISRGGSTYYADSVKGRFTISRDNAKNTSYLQMNSLKPEETAVYYCAAGLSSMRYDYWGQGTQVTVSS

target: Canine Parvovirus Type 2 (CPV2) (Canine parvovirus type 2); assay: cell-based or functional assay

Binder	Invasion reduced by >50% at 5 µM NBX
B1	> 50%
B2	> 50%
B3	≤ 50%
B4	≤ 50%
B5	≤ 50%
B6	≤ 50%
B7	> 50%
B8	≤ 50%
B9	≤ 50%
B10	> 50%
B11	> 50%
B12	≤ 50%
